Source: the RNAGym collection of RNA variant scans (doi:10.1073/pnas.2313332121)
This sample holds only a part of the variants without activity.

B1: TPR 5TU (parent)
chain: GGAUCUUCUCGAUCUAACAAAAAAGACAAAUCUGCCACAAAGCUUGAGAGCAUCUUCGGAUGCAGAGGCGGCAGCCUUCGGUGGCGCGAUAGCGCCAACGUUCUCAACUAUGACACGCAAAACGCGUGCUCCGUUGAAUGGAGUUUAUCAUG

Variants of: B1
Experiment: polymerase ribozyme fitness, log enrichment relative to wild type (log ratio); higher = more active; in vitro selection for triplet polymerase activity
In short: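 Mutant libraries for each subunit of a heterodimeric triplet polymerase ribozyme were made by PCR and then transcribed. Each library underwent one round of in vitro selection in triplicate: annealing with a biotinylated primer, the partner subunit and triplets, frozen incubation at −7 °C, gel excision of extended constructs, streptavidin-bead capture and RT-PCR. Input and output libraries were Illumina-sequenced, and only genotypes with ≥10 input reads and ≥1 read per output were kept. Fitness is the logarithm, base 2, of genotype enrichment over wild-type enrichment, computed from inverse-variance-weighted replicate averages.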

Variant	polymerase ribozyme fitness (log ratio)
U55A G59C	0.269
A20U A41U	-2.17
A19G A52G G58U A64G U139A	≤ -4.2
G11C A21G A28U C38U C87A G133C U144G A150C	≤ -4.2
C10A C85A	-3.53
A16U C36U C51A G92A	≤ -4.2
G42A G81U A91C G92U C95G A107C C108A C114G G141A	≤ -4.2
A47U U55A C95A A122G	-0.42
A41U G92U G141A	-1.22
U53C C87G U101A	≤ -4.2
U44A A137U	-3.68
C54U A97G C99G U135G	-3.75
A3U G58A U130A	-3.64
G48A A97G	-0.198
A3G G94A C114U	-2.39
C5G U6A A28U A30U A39C U45C U53A C57A C96G A115U C129U G140C	-3.81
U61G C72U	-1.45
C85A G140C	-3.64
U53A G84A C87U A106G	-3.23
U13G A23C C32U G59U C85G C105G A106U C116G U134A	≤ -4.2
G128U G141A	-3.74
C87U A142U	-0.783
A3U C54U U56A C95U C123U A150C G152U	-3.58
C79U U102C	≤ -4.2

Variant	polymerase ribozyme fitness (log ratio)
C35G U55C G68U A91G G126A	≤ -4.2
C35G C85U	≤ -4.2
A20C G50C C54U G58C G62A C103G C125U A142C	≤ -4.2
A30U C32U G50U C51U U82C A106U A119C	≤ -4.2
U9G A17C A22U A29G G50A G68A	≤ -4.2
C114G G143A	≤ -4.2
C87A A97G	≤ -4.2
A26U C76A G86C G92C C95A U144G	≤ -4.2
C38U C87U C103U	-0.308
C18A	-0.302
A30U G80A G81U C85U U104A C105G	≤ -4.2
U82G A107U	-2.6
A41C A91G G141U	-2.56
C57U A64U G92A A138U U145G A150C	≤ -4.2
A29U A97G A121G G140C	≤ -4.2
A22C A60G C96G C114A C131G	≤ -4.2
C32A G74U C85A A98U	-0.754
U15A C38A A73U G83U G84C	≤ -4.2
C5G A17U G74A A91G G141U	≤ -4.2
A23G A37G C95A C118G G140A	≤ -4.2
A22C G86A U101A G141A A142G	≤ -4.2
A37G A47G G92C	-3.05
G83C U101A	-1.07
C96G A107C C108A A120U G136U	-3.81

Variant	polymerase ribozyme fitness (log ratio)
A12C C57U C72A C93G U111G U146G	≤ -4.2
A20C G48U G100C C116A	≤ -4.2
A24U C93U A98G C132U A142G	-4.17
U4C A47C G84A G88A G92U A142G	≤ -4.2
G46A U53G C57U G86A A115C	≤ -4.2
U6A U33A U55G C57U C79G G92A C131U	≤ -4.2
A19C C63U A120G U145A	0.504
G59A U90A A98G C103A	≤ -4.2
A122C	-0.398
G48A G50U U55A	-2.15
A40C G50C G80C A97U U134A U145G	≤ -4.2
U55A C96A A107C C116A G124C U151A	≤ -4.2
G11C A19C G70U G86A A89U A106G G136C	≤ -4.2
G65A G124U	-1.24
G50A C75G U90G U111C C123G U139A U144C	≤ -4.2
A113U	-1.59
U56A C75G G94A C105U G133U	-4.17
C38U C57U C93A A142U	-3.5
A12G A20U A41C C57A A66U C69G A91U C129U	≤ -4.2
A52C A66C C69A C87G G133U	≤ -4.2
C14G C87U	-2.29
G11C C76A	-1.78
A49U U56A C75U C108A U111G U146G	≤ -4.2
C96A A120G	0.0421

Variant	polymerase ribozyme fitness (log ratio)
U13G C36U A52G G70A G84U	-0.614
A20U A22G A52U A73G C85U G124C	-3.91
A23U G42A C51U G71A G94A U101G	≤ -4.2
U15A A20C G74C G81A C105G U135G U145G U148A	≤ -4.2
C18U C54U C57A G83U	-1.15
C96U C118U	-0.211
C14G U77G G80U C85A	≤ -4.2
G83U G94A U127C	-3.92
C32A U45A G80C C87G U90G G152U	≤ -4.2
C69G G94A U104G	-1.19
A3U G59A A120U	-0.556
C18A C93U A113U A119C G140U	-4.1
C87G A91C A122G	≤ -4.2
A29G C93U A107G U148G	≤ -4.2
G88C U144G	-3.7
A24G G88U	≤ -4.2
C38U G65U G71U U90C C114U U135C U146A	≤ -4.2
U6C A40U C51U A52C C99U G112C	≤ -4.2
G50A A52G	-1.15
G42A G50C	≤ -4.2
C14U A89U C93U	-3.88
A137C C149U	-3.9
C51U C75U C87U U104C A115G A121U A142C	-4.13
U33A G46U A107G	-4.18

Variant	polymerase ribozyme fitness (log ratio)
U55A C118G A147U	0.0992
U15G C85A C123U	-0.906
U55G G84C A107G A142C	≤ -4.2
A12U A39U U55A G67U G86U C103U	≤ -4.2
A24U A39U A89C	-4.16
A20C G81U G94U A120U U151C	-4.13
G11C A30G U53A G58A C95A	≤ -4.2
A41C C93U	-1.61
A20C C54A G84U C116U	-3.08
U7G G25A A28U C54A C85U U148G C149U	≤ -4.2
A16C C75A C76A C125G	≤ -4.2
C27A C43G G92C U101C U127G U146A	≤ -4.2
A19G U53A A91G C95U U104A A121C G126C U135G	≤ -4.2
C8A A19U G48C U56A C93U G140A A142G A150C	≤ -4.2
A16C G50A C96A	-3.37
U6A C85U C95A A120G	-1.78
G50A G65A U102C	-4.1
G25C U33G G59A U78A G92C C99A G100U U134A	≤ -4.2
G11A A30G A41C A91U C95G G140C	≤ -4.2
A40U C54U G70C G117U G128C A137G	≤ -4.2
C5G C85G	-1.46
C32G A110C	≤ -4.2
A24G C54U	-2.83
U55G C85A C99U G136A	-3.43

Variant	polymerase ribozyme fitness (log ratio)
G62A C75G C96A	≤ -4.2
G11C C85U A97U G124C	-3.4
A3C C18G A30G C116G	≤ -4.2
A47C G83A	-2.37
G42C U61A A64G A107G U130C	≤ -4.2
G83A C118U G126A	-2.89
A16G U53A	-1.79
A28C U31A A91G U104C	≤ -4.2
C95A C96G U144C	-2.34
G58A A60C G74A C85G C116G C123U C149G	≤ -4.2
C54A G70U A91U C114U A119U A120U	≤ -4.2
U56A U82A C96A C114G	-3.42
A52G U55A U90G C96U C103A C131G	≤ -4.2
A28U C116G	-3.74
U7G A23C A47C U53A C116A	≤ -4.2
C8G A16C A21G G48C C75A C87U A110U U144G	≤ -4.2
C35U G81C U109G C116U	-3.18
C57U A73C	-1.36
U13C G88U	-3.96
C14G U53A G94A G124U	-3.37
C36U	-0.919
C5G G25U C27G A37G G46A U61A C96U	-4.17
U4A C8U G46C C93A G100A C118U	≤ -4.2
A39C G65A A66C C85A G88C G140U	≤ -4.2

Variant	polymerase ribozyme fitness (log ratio)
A52C G58U C75A C93A	≤ -4.2
A49U A73G	-2.09
A21U C27G C36A G117C	-4.02
C10U A30U U33G C51A A64C A91G C118U U145C	≤ -4.2
A73G U130C	0.842
C76U C95U C96U G124U	-1.17
G84A U127A	-3.74
A21C A24C A52C C79A C93U A150U G152C	≤ -4.2
A39C G88C C108G	≤ -4.2
C5A C76U C93A	-1.5
A23G A29U G59A G94A	≤ -4.2
G58U G141C A147U	-0.128
C10G G11U A28C A37G G46U G88U C96U U102G C105U	≤ -4.2
U45A C79U C103A C118U	≤ -4.2
U6G A40C U144A	0.287
C35U G58U C87U C114A A119C	-4
A19U C93U A97U G141C	-2.49
U53A G94U	-3.17
G62A C87U C116U G117U	-0.42
G68C A122C U127A	≤ -4.2
A28U G84U G86A G94A A98G C131A	≤ -4.2
C5G U55G A73U	-3.69
C79G	-3.75
